Values of other authors, collected in article PMC8466385.

Biological target: Tyr411 (UniProt position 435, ALLVRYTKKVP)
Assay: kinetics
Details: not stated for the pKa values (Table 1 footnote c gives 22.0 °C for kinetic parameters from the same reference)

Human serum albumin (HSA) (Homo sapiens)
pKa (HSA:NphODe (p-nitrophenyl decanoate) substrate complex): 7.0
pKa (HSA:NphOHe (p-nitrophenyl hexanoate) substrate complex): 7.6
pKa (substrate-free HSA): 8.9
